Patent publication US10774132B2, “Ultralong complementarity determining regions and uses thereof” (THE SCRIPPS RESEARCH INSTITUTE, priority 2012, dated 2020)

What was measured:
Mouse NFS-60 cells = assay: Proliferation assay on mouse NFS-60 cells (AlamarBlue); assay type: cell-based; details: for F.I. (fluorescence at 595 nm, AlamarBlue, cell viability): 72 hours
Protocol: Mouse NFS-60 cells were obtained from American Type Culture Collection (ATCC), VA, and cultured in RPMI-1640 medium supplemented with 10% fetal bovine serum (FBS), 0.05 mM 2-mercapoethanol and 62 ng/ml human macrophage colony stimulating factor (M-CSF). For proliferation assay, mouse NFS-60 cells were washed three times with RPMI-1640 medium and resuspended in RPMI-1640 medium with 10% FBS and 0.05 mM 2-mercapoethanol at a density of 1.5×10^5 cells/ml. In 96-well plates, 100 μl of cell suspension was added into each well, followed by the addition of varied concentrations of bGCSF, BLV1H12 antibody, and the immunoglobulin constructs described herein, Equal volume of PBS buffer was added into the control wells. The plates were incubated at 37° C. in a 5% CO2 incubator for 72 hours. Cells were then treated with AlamarBlue (Invitrogen) ( 1/10 volume of cell suspension) for 4 hours at 37° C. Fluorescence at 595 nm for each well was read to indicate the cell viability.

Human mPB CD34+ cells = assay: Proliferative activity on human granulocyte progenitors (flow cytometry); assay type: cell-based; details: for Number of CD45RA-CD41-: 7 days, flow cytometry
Protocol: Human mPB CD34^+ cells were purchased from AllCells. Cells were resuspended in HSC expansion medium (StemSpan SFEM, StemCell Technologies) supplemented with 1× antibiotics and the following recombinant human cytokines: thrombopoietin, IL6, Flt3 ligand, and stem cell factor (100 ng/mL, R & D Systems), then plated in 96-well plates (1000 cells per well), with varied concentrations of BLV1H12-bGCSF fusion antibodies. Cells were cultured for 7 days at 37° C. in a 5% CO2 incubator, then analyzed by flow cytometry to measure cell number and expression of CD45ra and CD41. Cells were stained in staining medium (HBSS supplemented with 2% FBS and 2 mM EDTA) at 4° C. for 1 h with PECy7 anti-CD45ra and eFluor 450 anti-CD41 (eBiosciences), then washed with staining medium and analyzed. Multicolor analysis for cell phenotyping was performed on a LSR II flow cytometer (Becton Dickinson). FIGS. 10A-10E and Tables 9-10 show the human granulocyte progenitor cell proliferative activities of the Ab-GCSF fusion antibodies.

mice neutrophils = assay: Neutrophil counts in mice, 10th day after injection; assay type: in vivo; details: blood stained and counted at the 10th day post-injection
Protocol: On the 10th day after injection of BLV1H12-bGCSF fusion antibodies into mice for PK study, blood samples were drawn from the mice and stained using the Diff Quick Staining Kit (Thermo Fisher Scientific, IL). Neutrophils and white blood cells were counted under microscope and the percentages of neutrophils were analyzed. FIGS. 12A-12B and Table 12 show proliferative activities of BLV1H12-bGCSF fusion antibodies on mice neutrophils that are blood stained and counted at the 10th day post-injection.

GLP-1 receptor (GLP-1R) = biological target: T1, GLP-1 receptor (GLP-1R) (Homo sapiens, UniProt P43220); assay: GLP-1R activation, cAMP responsive luciferase reporter in HEK293 cells; assay type: cell-based; details: HEK293 cells expressing GLP-1R, 24 h
T1 construct: expressed in transfected cells; host or cells: HEK293 (with cAMP responsive luciferase reporter gene)
Protocol: HEK293 cells expressing surface GLP-1R and cAMP responsive luciferase reporter gene were seeded in 384 well plates at a density of 5000 cells per well. […] Subsequently, luciferase assay was performed using One-Glo luciferase reagent according manufacture's instruction (Promega).
HEK293 cells expressing surface GLP-1R and cAMP responsive luciferase reporter gene were seeded in 384 well plates at a density of 5000 cells per well. After 24 h incubation at 37° C. with 5% CO2, cells were treated with various concentrations of peptides and BLV1H12-GLP-1 clip fusion proteins and incubated for another 24 h. Subsequently, luciferase assay was performed using One-Glo luciferase reagent according manufacture's instruction (Promega).

CXCR1 = biological target: T2, CXCR1 (Homo sapiens, UniProt P25024); assay: Flow cytometry binding to CXCR1-U2OS cells; details: CXCR1-U2OS cells; cell culture supernatant; flow cytometry
T2 construct: host or cells: U2OS
T2 sequence (P25024 1-350): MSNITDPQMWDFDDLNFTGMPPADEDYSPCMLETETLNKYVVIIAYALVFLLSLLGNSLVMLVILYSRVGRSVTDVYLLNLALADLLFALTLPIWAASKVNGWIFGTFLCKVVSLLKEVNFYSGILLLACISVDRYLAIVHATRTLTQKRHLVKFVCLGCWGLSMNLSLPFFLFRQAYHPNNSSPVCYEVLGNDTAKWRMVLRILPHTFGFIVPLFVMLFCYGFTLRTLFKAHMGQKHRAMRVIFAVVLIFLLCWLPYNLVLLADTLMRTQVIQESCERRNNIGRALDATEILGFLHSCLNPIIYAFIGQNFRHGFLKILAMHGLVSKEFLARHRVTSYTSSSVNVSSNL
Protocol: (§1) Briefly, a cell line expressing functionally validated CXCR1 derived from U2OS cells was obtained from DiscoveRx and cultured per manufacturer's instructions (Cat #93-0226C3, DiscoveRx Corporation, Freemont, Calif.). The parental cell line U2OS was obtained from ATCC and cultured under the same conditions as the CXCR1 cells. Cell culture supernatants from Example 2 above were then tested for binding to cells by flow cytometry. The adherent U2OS or CXCR1-U2OS cells were dissociated with Accutase (Innovative Cell Technologies, Inc., San Diego, Calif.), neutralized with an equal volume of media containing 10% serum, centrifuged at 1000 g, and resuspended in PBS with 2% BSA. Next, cells were dispensed into microtiter plates to achieve between 30,000 to 300,000 cells per well, centrifuged again, and resuspended in cell culture supernatant containing expressed IgG, or a dilution of IgG-containing cell culture supernatant. A fluorescent-conjugated anti-Human Fc antibody was used to detect binding of the expressed BLV1H12-IL8 fusion proteins to cells.

Parental U2OS = assay: Flow cytometry binding to parental U2OS cells; details: cell culture supernatant
Protocol: as §1

T1 sequence (P43220 24-463, species assumed): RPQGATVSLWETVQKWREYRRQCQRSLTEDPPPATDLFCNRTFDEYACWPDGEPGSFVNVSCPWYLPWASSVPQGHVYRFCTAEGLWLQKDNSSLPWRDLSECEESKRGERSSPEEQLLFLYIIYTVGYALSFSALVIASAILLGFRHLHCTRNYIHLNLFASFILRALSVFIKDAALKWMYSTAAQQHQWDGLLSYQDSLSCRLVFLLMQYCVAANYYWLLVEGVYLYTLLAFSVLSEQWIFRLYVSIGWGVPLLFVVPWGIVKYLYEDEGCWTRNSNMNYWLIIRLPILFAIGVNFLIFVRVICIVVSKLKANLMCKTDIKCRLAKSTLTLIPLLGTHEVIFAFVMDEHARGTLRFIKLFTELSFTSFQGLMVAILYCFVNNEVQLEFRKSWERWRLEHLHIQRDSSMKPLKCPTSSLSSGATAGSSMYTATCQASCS

B1: Ab: bovine BLV1H12 antibody with ultralong CDR3, no insertion; scaffold of the fusions and control (antibody)
heavy: QVQLRESGPSLVKPSQTLSLTCTASGFSLSDKAVGWVRQAPGKALEWLGSIDTGGNTGYNPGLKSRLSITKDNSKSQVSLSVSSVTTEDSATYYCTSVHQETKKYQSCPDGYRERSDCSNRPACGTSDCCRVSVFGNCLTTLPVSYSYTYNYEWHVDVWGQGLLVTVSS
light: QAVLNQPSSVSGSLGQRVSITCSGSSSNVGNGYVSWYQLIPGSAPRTLIYGDTSRASGVPDRFSGSRSGNTATLTISSLQAEDEADYFCASAEDSSSNAVFGSGTTLTVLGQPKSPPSVTLFPPSTEELNGNKATLVCLISDFYPGSVTVVWKADGSTITRNVETTRASKQSNSKYAASSYLSLTSSDWKSKGSYSCEVTHEGSTVTKTVKPSECS
- proliferative activity on mouse NFS-60 cells (Mouse NFS-60 cells): lack of proliferative activity
- F.I. (fluorescence at 595 nm, AlamarBlue, cell viability) (Mouse NFS-60 cells; 0.45725 ng/mL): 1040
- F.I. (fluorescence at 595 nm, AlamarBlue, cell viability) (Mouse NFS-60 cells; 1.37174 ng/mL): 1010
- F.I. (fluorescence at 595 nm, AlamarBlue, cell viability) (Mouse NFS-60 cells; 4.11523 ng/mL): 983.3
- F.I. (fluorescence at 595 nm, AlamarBlue, cell viability) (Mouse NFS-60 cells; 12.34568 ng/mL): 971.8
- F.I. (fluorescence at 595 nm, AlamarBlue, cell viability) (Mouse NFS-60 cells; 37.03704 ng/mL): 960.5
- F.I. (fluorescence at 595 nm, AlamarBlue, cell viability) (Mouse NFS-60 cells; 111.11111 ng/mL): 991.83
- F.I. (fluorescence at 595 nm, AlamarBlue, cell viability) (Mouse NFS-60 cells; 333.33333 ng/mL): 964.798
- proliferative activity on human granulocyte progenitor cells (Human mPB CD34+ cells): lack of proliferative activity
- Number of CD45RA-CD41- (Human mPB CD34+ cells; 0.28959 ng/mL): 3666
- Number of CD45RA-CD41- (Human mPB CD34+ cells; 0.86877 ng/mL): 3839
- Number of CD45RA-CD41- (Human mPB CD34+ cells; 2.60631 ng/mL): 3852
- Number of CD45RA-CD41- (Human mPB CD34+ cells; 23.45679 ng/mL): 3519
- Number of CD45RA-CD41- (Human mPB CD34+ cells; 70.37037 ng/mL): 3541
- Number of CD45RA-CD41- (Human mPB CD34+ cells; 211.11111 ng/mL): 3606
- Number of CD45RA-CD41- (Human mPB CD34+ cells; 5700 ng/mL): 4100
- Percentage of Neutrophil (mice neutrophils): 18.81
- RLU (cAMP responsive luciferase reporter) (GLP-1 receptor (GLP-1R); 1.26953 nM): 5200 RLU
- RLU (cAMP responsive luciferase reporter) (GLP-1 receptor (GLP-1R); 2.53906 nM): 5000 RLU
- RLU (cAMP responsive luciferase reporter) (GLP-1 receptor (GLP-1R); 5.07813 nM): 5600 RLU
- RLU (cAMP responsive luciferase reporter) (GLP-1 receptor (GLP-1R); 10.15625 nM): 5500 RLU
- RLU (cAMP responsive luciferase reporter) (GLP-1 receptor (GLP-1R); 20.3125 nM): 5380 RLU
- RLU (cAMP responsive luciferase reporter) (GLP-1 receptor (GLP-1R); 40.625 nM): 4600 RLU
- RLU (cAMP responsive luciferase reporter) (GLP-1 receptor (GLP-1R); 81.25 nM): 6140 RLU
- RLU (cAMP responsive luciferase reporter) (GLP-1 receptor (GLP-1R); 162.5 nM): 5760 RLU
- RLU (cAMP responsive luciferase reporter) (GLP-1 receptor (GLP-1R); 325 nM): 5600 RLU
- RLU (cAMP responsive luciferase reporter) (GLP-1 receptor (GLP-1R); 650 nM): 5800 RLU
- RLU (cAMP responsive luciferase reporter) (GLP-1 receptor (GLP-1R); 1300 nM): 14000 RLU
- Median Arbitrary Fluorescence Units (IgG binding) (CXCR1): 4 AFU
- Median Arbitrary Fluorescence Units (IgG binding) (Parental U2OS): 4 AFU
